The values below come from article PMC9838217, “Structure of SALL4 zinc finger domain reveals link between AT-rich DNA binding and Okihiro syndrome”.

Conditions in all cases: protein: recombinant; tags: His6-GST removed with 3C protease; label: DY681
The target in series [1] is T1, SALL4 ZFC4 R900W (Mus musculus, UniProt Q8BX22 870-940, R900W).
T1 sequence: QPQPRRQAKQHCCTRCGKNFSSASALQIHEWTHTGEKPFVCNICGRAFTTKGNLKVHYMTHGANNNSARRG
The series can be described thus: EMSA; apparent; poly(dI-dC); EMSA: 68.1 nM DY681-dsDNA, 20 mM HEPES pH 7.5, 150 mM K acetate, 5 mM Mg acetate, 10 ng/ul poly(dI-dC), 30 min on ice; 4% native PAGE, 0.5x TBE, 4 C. (In EMSA bound probe runs differently from free probe, usually more slowly.)

In series [2] the target is T2, SALL4 ZFC4 V925S (Mus musculus, UniProt Q8BX22 870-940, V925S).
T2 sequence: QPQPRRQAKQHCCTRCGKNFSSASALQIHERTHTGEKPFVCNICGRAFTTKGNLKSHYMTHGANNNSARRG
The description is as above.

Series [3] concerns the target T3, SALL4 ZFC4 I897S (Mus musculus, UniProt Q8BX22 870-940, I897S).
T3 sequence: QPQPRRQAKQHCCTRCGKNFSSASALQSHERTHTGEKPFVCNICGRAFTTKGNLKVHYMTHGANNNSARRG
Described as above.

Series [4] concerns the target T4, SALL4 ZFC4 I897S+V925S (Mus musculus, UniProt Q8BX22 870-940, I897S;V925S).
T4 sequence: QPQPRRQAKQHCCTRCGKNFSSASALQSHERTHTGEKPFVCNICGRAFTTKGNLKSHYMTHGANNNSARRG
The series can be described thus: EMSA; apparent; text gives 5.0; poly(dI-dC); EMSA: 68.1 nM DY681-dsDNA, 20 mM HEPES pH 7.5, 150 mM K acetate, 5 mM Mg acetate, 10 ng/ul poly(dI-dC), 30 min on ice; 4% native PAGE, 0.5x TBE, 4 C.

B1: EMSA AT-rich probe (dsDNA)
DNA 1: AAAAAATATTAAAAA
DNA 2: TTTTTAATATTTTTT
Turning to B1, the Kd in series [1] worked out at 23 µM; in series [2], 0.91 µM; in series [3], 4.8 µM; in series [4], 5.08 µM.
